Measured values: the RNAGym collection of RNA variant scans (doi:10.1073/pnas.2313332121)

B1: TPR t1 (parent)
chain: GACCAAUCUGCCCUCAGAGCUCGAGAACAUCUUCGGAUGCAGAGGAGGCAGGCUUCGGUGGCGCGAUAGCGCCAACGUCCUCAACCUCCAAUGCAUCCCACCACAUGAUGAUGCCUGAAGAGCCUUGGUUUUUUG

Variants of: B1
Assay: polymerase ribozyme fitness, log enrichment relative to wild type (log ratio); higher = more active; in vitro selection for triplet polymerase activity
Summary of the method: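 One round of in vitro selection, in triplicate, was applied to PCR-built, transcribed mutant libraries of each subunit of a heterodimeric triplet polymerase ribozyme. The steps were annealing with a biotinylated primer, partner subunit and triplets, incubation frozen at −7 °C, gel excision of extended constructs, streptavidin-bead capture and RT-PCR. Fitness is the logarithm, base 2, of genotype enrichment over wild-type enrichment from inverse-variance-weighted replicate averages of Illumina-sequenced inputs and outputs, keeping genotypes with ≥10 input reads and ≥1 read per output.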

Row | Variant | polymerase ribozyme fitness (log ratio)
1 | GACCAAUCUGCGCUCAUAGCUCGAGAACAUCUUCGGAUGCAGAGGAGGCAGGCUUCCGUGGAGCGAUAGCGCCAACGUCCUCAACCUCCAAUGCAUCCCACCACAUGAUGAUGCGUGAAGAGCCUUGGCUUCUUG [C12G G17U G57C C62A C115G U129C U132C] | -3.27
2 | GACCAAUCUGCGCUCAGACCUCGAGAACAUCUUCGGAUGCAGAGGAGGCAGGCUUCGGUGGCGCGAUAGCGCCAACGUCCUCAACCUCCAAUGCAUCCCACCACAUGAUGAUGCCUGAAGAGCCUUGGUUUUUUG [C12G G19C] | -1.64
3 | GACCAAUCUGCGCUCAGAUCUCGAGAACAUCUUCGGAUGCAGAGGAGGCAGGCUUCGGUGGCGCGAUAGCGUCAACGUCCUCAACCUCCAAUGCAUCCCACCACAUGAUGAUGCCUGAAGAGCCUUGGUUUUUUG [C12G G19U C72U] | -6.54
4 | GACCAAUCUGCGCUCAGAGCUCGAGAACAUCUUCAGAUGCAGAGGAGGCAGGCUUCGGUGGCGCGAUAGCGCCUACGUCCUCAACCUCCAAUGCAUCCCACCACAUGAUGAUGCCUGAAGAGCCUUGGUUUUUUG [C12G G35A A74U] | -4.41
5 | GACCAAUCUGCGCUCAGAGCUCGAGAACAUCUUCAGAUGCAGAGGAGUCAGGCUUCUGUGGCGCGAUAGCGCCAACGUCUUCAACCUCCAAUGCAUCCCACCACAUGAUGAUGCCUGAAGAGCCUUGGUUUUUUG [C12G G35A G48U G57U C80U] | -4.47
6 | GACCAAUCUGCGCUCAGAGCUCGAGAACAUCUUCGCAUGCAGCGGAGGCAGGCUUCGGUGGCCCGAUAGCGCCAACGUCCUCAACCUCCAAUGCAUCCCACCACAUGAUGAUGCCUGAAGAGCCUUGGUUUUUUG [C12G G36C A43C G63C] | -4.59
7 | GACCAAUCUGCGCUCAGAGCUCGAGAACAUCUUCGUAUGCAGAGGAGGCAGGCUUUGGUGGCGCGAUAGCGCCAACGUCCUCAACCUCCAAUGCAUCCCACCACAUGAUGAUGCCUGAAGUUCCUUGGUUUUUUG [C12G G36U C56U A121U G122U] | 0.307
8 | GACCAAUCUGCGCUCAGAGCUCGAGAACAUCUUCGGAUGCAUAGGAGGAAGGCUUCGGUGGCGCGAUAGCGCCAACGUCCUCAACCUCCAAUGCAUCCCACCACAUGAUGAUCCCUGAAGAGCCUUGGUUUAUUG [C12G G42U C49A G113C U132A] | -2.5
9 | GACCAAUCUGCGCUCAGAGCUCGAGAACAUCUUCGGAUGCAGAAGAGUCAGGCUUCGGUGGCGCGAUAGCGCCAACGUCCUCAACCUCCAAUGCAUCCCACCGCAUGAUGAAGCAUGAAGAGCCUUGGUUUUUUG [C12G G44A G48U A103G U112A C115A] | -6.92
10 | GACCAAUCUGCGCUCAGAGCUCGAGAACAUCUUCGGAUGCAGAGAAGGCAGGCUUCGGUGGCGCGAUAGCGCCAACGCCCUCACCCUCCAAUGCAUCCCACCACAGGAUGAUGCCUGAAGAGCCUUGGUUUUUUG [C12G G45A U78C A84C U106G] | -2.62
11 | GACCAAUCUGCGCUCAGAGCUCGAGAACAUCUUCGGAUGCAGAGGAACCAGGCUUCGGUGGCGCGAUGGCGCCAACGUCCUCAACCUCCAAUGCAUCCCACCGCCAGAUGAUGCCUUAACAGCCUUGGUUUUUUG [C12G G47A G48C A68G A103G A105C U106A G117U G120C] | -7.36
12 | GACCAAUCUGCGCUCAGAGCUCGAGAACAUCUUCGGAUGCAGAGGACGCAGGCUUCGGUGGCGCGUUAGCGCCAACGUCCUCAACCUCCCAUGCAUCCCACCACAUGAUGAUGCCUGAACAGCCUUGGAUUUUUG [C12G G47C A66U A90C G120C U129A] | -6.06
13 | GACCAAUCUGCGCUCAGAGCUCGAGAACAUCUUCGGAUGCAGAGGACGCAGACUUCGGUGGCGUGAUAGCGCCAACGUCCUCAACCUCCAAUGCAUCCCACCACAUGAUGAUGCCUGAAGAGACUUGGUUUUUUG [C12G G47C G52A C64U C123A] | -3.61
14 | GACCAAUCUGCGCUCAGAGCUCGAGAACAUCUUCGGAUGCAGAGGACGCAGGCUUCGGUGGCGCGAUAGCGCCAACGUCCUCAACCUCCAAUGCAACCCACCAAAUGAUGAUGCCUGAAGAGCCUUGGUUUUUUG [C12G G47C U96A C104A] | -4.59
15 | GACCAAUCUGCGCUCAGAGCUCGAGAACAUCUUCGGAUGCAGAGGAGCAAGGCUCCGGUGACGCGAUAGCGCCAACGUCCUCAACCUCCAAUGCGUCCCACCACAUGAUAAUGCCUGAAGAGCCUUGGUUUUUUG [C12G G48C C49A U55C G61A A95G G110A] | -2.17
16 | GACCAAUCUGCGCUCAGAGCUCGAGAACAUCUUCGGAUGCAGAGGAGGCACGCUUCGGUGGCGCGAUAGCGCCAACGUCCUCAACCUCCAAUGCAUCCCACCACAUGAUGAUGCCUGAAGAGCCUUGGUUUUUUG [C12G G51C] | -3.21
17 | GACCAAUCUGCGCUCAGAGCUCGAGAACAUCUUCGGAUGCAGAGGAGGCAGACUUCGGUGGCGCGAUAGCGCCAACGUCCUCAACCUUCAAUGCAUCCCACCACAUGAUGAUGCCUGAAUAGCCUUGGUUUUUUG [C12G G52A C88U G120U] | 1.84
18 | GACCAAUCUGCGCUCAGAGCUCGAGAACAUCUUCGGAUGCAGAGGAGGCAGGCUUCAGUGUCGCGAUAGCGCCAACGUCAUCAACCUCCAAUGCAUCCCACCACAUGAUGAUGCCUGAAGAGCCUUGGUUUUUUG [C12G G57A G61U C80A] | -2.05
19 | GACCAAUCUGCGCUCAGAGCUCGAGAACAUCUUCGGAUGCAGAGGAGGCAGGCUUCGUUGGCGCGAUAGCGCCAACGUCCUCAACCUCCUAUGCAUCCCACCACUUGAUGAUGCCUGAAGAGCCUUGGUUUUUUG [C12G G58U A90U A105U] | -4.19
20 | GACCAAUCUGCGCUCAGAGCUCGAGAACAUCUUCGGAUGCAGAGGAGGCAGGCUUCGGUAGCGCGAUAGCGCCAACGUCCUCAAGCUCCAAUGCAUCCCACCACAUGAUGAUGCCUAAAGAGCCUUGGUUAUUUG [C12G G60A C85G G117A U131A] | -1.29
21 | GACCAAUCUGCGCUCAGAGCUCGAGAACAUCUUCGGAUGCAGAGGAGGCAGGCUUCGGUGAGGCGAUAGCGCCAACGUCCUCAACCACCAAUGCAUCCCACCACAUGAUGAUUCCUGAAGAGCCGUGGUUUUUUG [C12G G61A C62G U87A G113U U125G] | -7.34
